The results in this text go back to paper PMC5105194 (Nature Communications, 2016).

The test addresses full-length human VPS29 (human, UniProt Q9UBQ0 1-182). In words: ITC; TBC proteins (100∼200 μM) injected into retromer proteins (8–16 μM); 20 °C; 20 mM Tris pH 8, 200 mM NaCl, 5 mM βME; one set of sites model. The conditions noted are these: both partners purified.

B1: TBC1d5 Ins1 peptide (peptide)
peptide: GQQDLMINNPLSQDEGSLWNKFFQDKE
notes: TBC1d5 residues 132–158 (Insertion 1 region); The limits are told for the crystallised peptide; source: expressed as MBP fusion, purified (Amylose resin, TEV cleavage, Ni-NTA, Superdex 75); not shown: His6, C-terminal, kept
B1: the binding result is recorded as “binds”.
